Target: T1, KLC1 (TPR1-6) fragment, human KNS2 residues 205-501 (human, UniProt Q07866 205-501)
T1 construct: KLC1 (KNS2), human, residues 205-501 (TPR1-6), in the pET28MHL vector; No removal of the tag is described; also called purified human KLC1; source: E. coli BL21 (DE3), purified (Ni-NTA, Superdex-200 gel filtration)
Assay: ITC; KLC1 (TPR1-6) at 20μM in the cell, SFPQ peptide at 200μM in the syringe, 30 injections of 4μL; 20mM HEPES pH 7.5, 150mM NaCl, 0.5mM TCEP, 2% DMSO, 25°C; single site model
Settings: both partners purified

T1 sequence (Q07866 205-501): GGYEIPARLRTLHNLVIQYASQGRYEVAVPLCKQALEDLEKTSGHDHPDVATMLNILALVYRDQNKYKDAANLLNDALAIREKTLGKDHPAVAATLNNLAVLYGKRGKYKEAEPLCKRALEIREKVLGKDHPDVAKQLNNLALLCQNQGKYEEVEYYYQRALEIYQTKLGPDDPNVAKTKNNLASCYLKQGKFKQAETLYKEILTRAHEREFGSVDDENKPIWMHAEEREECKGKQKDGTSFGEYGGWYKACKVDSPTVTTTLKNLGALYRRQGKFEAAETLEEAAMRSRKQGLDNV

B1: SFPQ WT peptide spanning the Y-acidic motif (peptide)
peptide: ESEMEDAYHEHQANLLR
notes: SFPQ, human, stretch of the coiled coil domain with the Y-acidic motif; the underlined Y is Y527; also called long SFPQ peptide; WT SFPQ; source: synthetic peptide (KE BioChem)
- Kd: 3.8 ± 2.3 µM
- stoichiometry N: 1
